Laboratory results from patent US20250188166A1 (BRIGHT PEAK THERAPEUTICS, published 2025).
Blank lines part the entries; values can stand above or below the binder they belong to.

How the values were obtained:
[1] = target: T1, IL-18R on HEK-Blue IL18R reporter cells (UniProt Q13478 19-541; O95256 20-599); test: cell-based or functional assay
T1 sequence (looked up) 1: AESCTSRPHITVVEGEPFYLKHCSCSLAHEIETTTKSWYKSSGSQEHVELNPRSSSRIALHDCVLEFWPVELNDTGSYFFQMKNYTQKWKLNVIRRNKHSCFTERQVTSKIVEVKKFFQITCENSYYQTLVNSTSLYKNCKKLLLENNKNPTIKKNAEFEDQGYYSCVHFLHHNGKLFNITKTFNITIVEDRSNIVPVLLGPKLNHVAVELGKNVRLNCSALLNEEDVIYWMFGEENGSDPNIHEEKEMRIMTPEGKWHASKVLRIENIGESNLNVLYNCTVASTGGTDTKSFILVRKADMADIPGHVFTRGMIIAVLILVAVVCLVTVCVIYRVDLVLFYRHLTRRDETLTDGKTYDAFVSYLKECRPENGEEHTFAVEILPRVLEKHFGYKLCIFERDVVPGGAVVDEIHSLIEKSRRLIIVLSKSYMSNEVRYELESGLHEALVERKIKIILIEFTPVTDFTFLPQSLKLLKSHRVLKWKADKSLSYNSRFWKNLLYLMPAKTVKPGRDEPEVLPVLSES
T1 sequence (looked up) 2: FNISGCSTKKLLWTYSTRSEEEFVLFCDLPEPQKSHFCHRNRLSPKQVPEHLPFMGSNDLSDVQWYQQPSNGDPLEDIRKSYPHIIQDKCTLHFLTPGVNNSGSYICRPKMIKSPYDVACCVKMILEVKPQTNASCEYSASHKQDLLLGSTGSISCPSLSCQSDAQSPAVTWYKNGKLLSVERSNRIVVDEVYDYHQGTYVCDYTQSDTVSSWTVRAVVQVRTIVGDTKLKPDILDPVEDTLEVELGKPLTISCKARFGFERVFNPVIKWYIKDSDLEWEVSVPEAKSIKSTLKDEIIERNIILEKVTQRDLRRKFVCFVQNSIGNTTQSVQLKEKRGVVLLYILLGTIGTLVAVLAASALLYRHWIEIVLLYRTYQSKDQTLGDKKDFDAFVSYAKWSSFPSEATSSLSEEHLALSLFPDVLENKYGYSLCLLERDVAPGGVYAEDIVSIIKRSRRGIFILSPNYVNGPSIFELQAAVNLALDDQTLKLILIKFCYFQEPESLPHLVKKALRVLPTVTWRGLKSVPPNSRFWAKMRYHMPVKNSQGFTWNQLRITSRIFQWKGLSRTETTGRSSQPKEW

His-tagged human IL-18BP = target: T2, His-tagged human IL-18BP (human, UniProt O95998 31-194, limits assumed); test: AlphaLISA of free IL-18BP: IL-18 analyte titrated in the presence of 5 ng/ml His-tagged human IL-18BP; loss of free IL-18BP signal
T2 construct: also called human IL-18BP-His
T2 sequence (looked up): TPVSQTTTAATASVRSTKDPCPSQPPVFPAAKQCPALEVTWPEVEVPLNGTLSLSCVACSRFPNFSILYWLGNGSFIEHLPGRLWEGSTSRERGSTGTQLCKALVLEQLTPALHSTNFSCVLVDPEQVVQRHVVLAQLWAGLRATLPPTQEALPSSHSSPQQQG

[2] = target: T1, IL-18R on HEK-Blue IL18R reporter cells; test: cell-based or functional assay; remark: listed apart in the source
[3] = target: T1, IL-18R on HEK-Blue IL18R reporter cells; test: cell-based or functional assay; remark: listed apart in the source
[4] = target: T3, Biotinylated Recombinant Human PD-1/CD279-Fc Chimera (human, UniProt Q15116 25-167, biotinylated); test: ELISA; antibody coated, biotinylated human PD-1-Fc titrated
T3 construct: Bought (Biolegend #789406); also called recombinant biotinylated human PD-1
Protocol: (§1) The interaction of the unmodified antibodies and corresponding IL-18 immunocytokines with relevant immune cell associated antigen are measured by ELISA assay. For these studies, Corning high-binding half-area plates (Fisher Scientific, Reinach, Switzerland) are coated overnight at 4° C. with 25 μl of unmodified antibodies corresponding IL-18 immunocytokines at 5 μg/ml in PBS. Plates are then washed four times with 100 μl of PBS-0.02% Tween20. Plate surfaces are blocked with 25 μl of PBS-0.02% Tween20-1% BSA at 37° C. during 1h. […] Plates are then washed four times with 100 μl of PBS-0.02% Tween20. Twenty-five microliters of Streptavidin-Horseradish peroxidase (#RABHRP3, Merck, Buchs, Switzerland) diluted at 1:500 into PBS-0.02%Tween20-0.1% BSA are added to each well and incubated at Room Temperature during 30 min. Plates are then washed four times with 100 μl of PBS-0.02% Tween20. Fifty microliters of TMB substrate reagent (#CL07, Merck, Buchs, Switzerland) are added to each well and incubated at 37° C. during 5 min. After 5 min at 37° C., Horseradish peroxidase reaction is stopped by adding 50 μl/well of 0.5M H2SO₄ stop solution. ELISA signal is then measured at 450 nm on an ENSPIRE® plate reader from Perkin Elmer (Schwerzenbach, Switzerland).

[5] = target: T4, recombinant biotinylated human FcRn (human, UniProt P55899 24-297; P61769 21-119, limits assumed, biotinylated); test: AlphaLISA competition at pH 6: test molecule titrated against human IgG acceptor beads for biotinylated human FcRn on streptavidin donor beads; normalized signal
T4 construct: Kit reagent; also called human neonatal Fc receptor

[6] = target: T3, Biotinylated Recombinant Human …; test: ELISA: fusion immunocytokine coated on the plate (5 µg/ml), biotinylated human PD-1-Fc titrated (x-axis, Concentration (nM)), streptavidin-HRP/TMB, 450 nm
Protocol: as §1

[7] = target: T4, recombinant biotinylated human FcRn; test: AlphaLISA competition at pH 6; competitor human IgG acceptor beads
Protocol: The interaction of the unmodified and of conjugated anti-PD1 antibodies with the human neonatal Fc receptor (FcRn) at pH 6 was measured using the AlphaLISA® Human FcRn Binding Kit (AL3095C) from Perkin Elmer (Schwerzenbach, Switzerland).
After 90 min at 23° C. in the dark, AlphaLISA® signal was measured on an EnSpire plate reader (Excitation at 680 nm, Emission at 615 nm) from Perkin Elmer (Schwerzenbach, Switzerland).

[8] = target: T4, recombinant biotinylated human FcRn; test: AlphaLISA competition at pH 6: test antibody titrated against human IgG acceptor beads for biotinylated human FcRn on streptavidin donor beads; normalized signal

B1: IL-18 polypeptide C141 (SEQ ID NO: 71) (ligand)
chain: GYFGKLKSKLSIIRNLNDQVLFIDQGNRPLFEDMTDSDARDNAPRTIFIISMYADSQPRGMAVAISVKCEKISTLSAENKIISFKEMNPPDNIKDTKSDIIFFQRSVPGHDNKMQFESSSYEGYFLAAEKERDLFKLILKKEDELGDRSIMFTVQNED
EC50, HEK-Blue IL18R SEAP reporter [1]: 1.68 pM

B3: IL-18 polypeptide SEQ ID NO: 30 (E6K, V11I, C38A, K53A, T63A, C76A, C127A) (ligand)
chain: YFGKLKSKLSIIRNLNDQVLFIDQGNRPLFEDMTDSDARDNAPRTIFIISMYADSQPRGMAVAISVKCEKISTLSAENKIISFKEMNPPDNIKDTKSDIIFFQRSVPGHDNKMQFESSSYEGYFLAAEKERDLFKLILKKEDELGDRSIMFTVQNED
notes: also called C086; IL-18 variant
IC50 (read off the curve) (His-tagged human IL-18BP): ~9000 pM | IL-18R Hek Blue assay EC50 [2]: 0.057 pM | EC50 (read off the curve) [3]: ~0.05 pM | EC50, HEK-Blue IL18R SEAP reporter [1]: 0.034 pM

B4: CMP2001 (other)
heavy 1: QVQLVQSGAEVKKPGASVKVSCKASGYTFTSYYMYWVRQAPGQGLEWMGGVNPSNGGTNFNEKFKSRVTITADKSTSTAYMELSSLRSEDTAVYYCARRDYRYDMGFDYWGQGTTVTVSSASTKGPSVFPLAPCSRSTSESTAALGCLVKDYFPEPVTVSWNSGALTSGVHTFPAVLQSSGLYSLSSVVTVPSSSLGTKTYTCNVDHKPSNTKVDKRVESKYGPPCPPCPAPEFLGGPSVFLFPPKPKDTLMISRTPEVTCVVVDVSQEDPEVQFNWYVDGVEVHNAKTKPREEQFNSTYRVVSVLTVLHQDWLNGKEYKCKVSNKGLPSSIEKTISKAKGQPREPQVYTLPPSQEEMTKNQVSLWCLVKGFYPSDIAVEWESNGQPENNYKTTPPVLDSDGSFFLYSRLTVDKSRWQEGNVFSCSVMHEALHNRFTQKSLSLSLGK
heavy 2: QVQLVQSGAEVKKPGASVKVSCKASGYTFTSYYMYWVRQAPGQGLEWMGGVNPSNGGTNFNEKFKSRVTITADKSTSTAYMELSSLRSEDTAVYYCARRDYRYDMGFDYWGQGTTVTVSSASTKGPSVFPLAPCSRSTSESTAALGCLVKDYFPEPVTVSWNSGALTSGVHTFPAVLQSSGLYSLSSVVTVPSSSLGTKTYTCNVDHKPSNTKVDKRVESKYGPPCPPCPAPEFLGGPSVFLFPPKPKDTLMISRTPEVTCVVVDVSQEDPEVQFNWYVDGVEVHNAKTKPREEQFNSTYRVVSVLTVLHQDWLNGKEYKCKVSNKGLPSSIEKTISKAKGQPREPQVYTLPPSQEEMTKNQVSLSCAVKGFYPSDIAVEWESNGQPENNYKTTPPVLDSDGSFFLVSRLTVDKSRWQEGNVFSCSVMHEALHNHYTQKSLSLSLGKGGGGSGGGGSGGGGSYFGKLKSKLSIIRNLNDQVLFIDQGNRPLFEDMTDSDARDNAPRTIFIISMYADSQPRGMAVAISVKCEKISTLSAENKIISFKEMNPPDNIKDTKSDIIFFQRSVPGHDNKMQFESSSYEGYFLAAEKERDLFKLILKKEDELGDRSIMFTVQNED
light: EIVLTQSPATLSLSPGERATISCRASKGVSTSGYSYLHWYQQKPGQAPRLLIYLASYLESGVPARFSGSGSGTDFTLTISSLEPEDFATYYCQHSRELPLTFGTGTKVEIKRTVAAPSVFIFPPSDEQLKSGTASVVCLLNNFYPREAKVQWKVDNALQSGNSQESVTEQDSKDSTYSLSSTLTLSKADYEKHKVYACEVTHQGLSSPVTKSFNRGEC
notes: expressed in CHO K1 cells
Kd [4]: 38.9 pM | IC50 (read off the curve) [5]: ~10000 pM | EC50 (read off the curve) [6]: ~30 pM | IL-18R Hek Blue assay EC50 [2]: > 200 pM | Kd [7]: 12500 pM

Next, values leading:

EC50, HEK-Blue IL18R SEAP reporter [1]: 14 pM
B2: IL-18 polypeptide C192 (SEQ ID NO: 70) (ligand)
chain: GYFGKLKSKLSIIRNLNDQVLFIDQGNRPLFEDMTDSDARDNAPRTIFIISGYADSQPRGMAVAISVKCEKISTLSAENKIISFKEMNPPDNIKDTKSDIIFFQRSVPGHDNKMQFESSSYEGYFLAAEKERDLFKLILKKEDELGDRSIMFTVQNED

IC50 (read off the curve) [8]: ~8000 pM
B5: Pembrolizumab/Keytruda (antibody, human IgG4 S228P, kappa)
heavy: not shown
light: EIVLTQSPATLSLSPGERATLSCRASKGVSTSGYSYLHWYQQKPGQAPRLLIYLASYLESGVPARFSGSGSGTDFTLTISSLEPEDFAVYYCQHSRDLPLTFGGGTKVEIKRTVAAPSVFIFPPSDEQLKSGTASVVCLLNNFYPREAKVQWKVDNALQSGNSQESVTEQDSKDSTYSLSSTLTLSKADYEKHKVYACEVTHQGLSSPVTKSFNRGEC
notes: also called Lambrolizumab; MK-3475
